Assays:
[1] = target: APOBEC3G (A3G-Myc-His) (human, UniProt Q9HC16 1-384); test: EMSA
[2] = target: A3G-H248A/H250A-Myc-His (human, UniProt Q9HC16 1-384, H248A;H250A); test: EMSA
A3G-H248A/H250A-Myc-His, sequence (Q9HC16 whole entry H248A/H250A): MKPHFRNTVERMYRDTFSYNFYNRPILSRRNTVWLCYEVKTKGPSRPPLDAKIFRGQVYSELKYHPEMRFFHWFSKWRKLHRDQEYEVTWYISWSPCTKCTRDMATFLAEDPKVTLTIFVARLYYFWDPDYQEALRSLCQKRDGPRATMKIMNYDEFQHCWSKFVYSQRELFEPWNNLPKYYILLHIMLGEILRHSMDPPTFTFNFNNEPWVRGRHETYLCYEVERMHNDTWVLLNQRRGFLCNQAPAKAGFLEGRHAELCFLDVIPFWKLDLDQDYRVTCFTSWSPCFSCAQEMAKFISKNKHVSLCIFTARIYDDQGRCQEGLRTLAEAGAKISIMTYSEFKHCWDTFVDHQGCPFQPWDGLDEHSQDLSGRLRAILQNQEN

APOBEC3G (A3G-Myc-His), sequence (Q9HC16 whole entry): as the sequence (Q9HC16 whole entry H248A/H250A) above, with A248H, A250H counted along it

B1: 43-nt ssDNA (ssDNA)
DNA: ATTATTATTATTCCAATGGATTTATTTATTTATTTATTTATTT
- binding result [1]: binds
- binding result [2]: binds
